The target in experiment [1] is Proliferating Cell Nuclear Antigen (PCNA) (UniProt P12004 1-261). Kind of experiment: FP.
Experiment [2] has as its target RPA32 winged-helix domain (RPA32-WH) (amino acids 202-270) (UniProt P15927 202-270). As to the kind of experiment: FP.

No end group written: not given here.

Chain of RPA32 winged-helix domain (RPA32-WH) (amino acids 202-270) (P15927 202-270): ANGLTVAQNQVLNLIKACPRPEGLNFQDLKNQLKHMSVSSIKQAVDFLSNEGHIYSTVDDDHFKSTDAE
Chain of Proliferating Cell Nuclear Antigen (PCNA) (P12004 whole entry, the tested form may be a part): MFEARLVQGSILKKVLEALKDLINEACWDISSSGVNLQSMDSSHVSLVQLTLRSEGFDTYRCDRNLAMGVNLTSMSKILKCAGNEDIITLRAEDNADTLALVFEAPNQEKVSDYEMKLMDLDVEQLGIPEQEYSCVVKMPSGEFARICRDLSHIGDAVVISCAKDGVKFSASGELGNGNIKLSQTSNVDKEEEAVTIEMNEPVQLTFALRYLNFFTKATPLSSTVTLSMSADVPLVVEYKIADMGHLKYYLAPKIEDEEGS

What is called Kd is a measure of binding affinity in units of concentration. A high value points to lower affinity. For the molecule SAVLQKKITDYFHPKK (also: fluorescein-labeled, position not given here) [Pogo-Ligase peptide], the Kd in experiment [1] is 0.051 µM.
LTEEQRKKIEENRQKALARRAEKLLA (also: fluorescein-labeled, position not given here) [SMARCAL peptide] registered a Kd in experiment [2] of 13.5 µM.

The record behind these values is article PMC13292882 (2025).
